Test [1] has as its target T1, human VEGFA (human, UniProt P15692).
T1 chain: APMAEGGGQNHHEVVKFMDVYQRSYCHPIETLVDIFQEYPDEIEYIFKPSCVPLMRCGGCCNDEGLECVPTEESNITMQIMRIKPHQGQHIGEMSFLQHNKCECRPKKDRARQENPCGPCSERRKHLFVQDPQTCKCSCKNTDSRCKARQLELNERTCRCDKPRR
Nature of the test: BLI.

The target of test [2] is T2, human PD-L1 (cell surface) (human, UniProt Q9NZQ7). Nature of the test: FACS. (A flow cytometer gives signals particle by particle.)
Test [3] addresses mouse PD-L1 (cell surface) (mouse, UniProt Q9EP73). Nature of the test: FACS, Hepa1-6 cells.
The target in test [4] is human PD-L1 ECD (human, UniProt Q9NZQ7). The test is described as follows: BLI.
The target of test [5] is T2, human PD-L1 (cell surface). Nature of the test: FACS. This is another data set of the same source.
In test [6] the target is T2, human PD-L1 (cell surface). Nature of the test: FACS, T24 cells.
Test [7] has as its target T2, human PD-L1 (cell surface). Nature of the test: FACS. The source holds these as a separate data set.
The target in test [8] is T2, human PD-L1 (cell surface). Nature of the test: FACS, T24 cells. The source holds these as a separate data set.

Experimental findings from patent publication US20260365734 (published 2026) are described below.

T2 sequence (Q9NZQ7 19-238): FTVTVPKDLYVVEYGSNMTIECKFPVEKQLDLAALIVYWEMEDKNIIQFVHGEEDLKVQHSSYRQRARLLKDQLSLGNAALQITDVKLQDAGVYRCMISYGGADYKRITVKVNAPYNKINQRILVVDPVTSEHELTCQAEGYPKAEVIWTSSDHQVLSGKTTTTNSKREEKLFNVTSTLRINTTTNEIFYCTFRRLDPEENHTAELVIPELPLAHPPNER
human PD-L1 ECD, sequence (Q9NZQ7 19-238): as above
mouse PD-L1 (cell surface), sequence (Q9EP73 19-238): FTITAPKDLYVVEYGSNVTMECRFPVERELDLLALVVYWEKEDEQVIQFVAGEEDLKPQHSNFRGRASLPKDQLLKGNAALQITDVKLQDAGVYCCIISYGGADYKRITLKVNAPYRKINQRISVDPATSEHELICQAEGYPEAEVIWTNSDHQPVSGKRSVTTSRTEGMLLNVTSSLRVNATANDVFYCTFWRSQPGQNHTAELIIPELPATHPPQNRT

B1: 7H3 (antibody, V domains shown)
VH: QVQLVESGGGVVQPGRSLRLSCAASGFTFGPYAMHWVRQAPGKERELVAAIWPSGSITYYADSVKGRFTISRDNSKNTLYLQMNSLRAEDTAVYYCAFGSPTGSITYWGQGTLVTVSS
What is called Kd is the equilibrium constant for the complex coming apart. For the molecule B1, in test [1], the Kd was 2080 pM. That is a single-digit nanomolar value.

B2: 5F8-hv8 (antibody, V domains shown)
VH: EVQLVESGGGLVQPGGSLRLSCAASGFDFSDTHMSWVRQAPGKERELVAIITSGGSTDYVDSVKGRFTISRDNSKNTLYLQMNSLRAEDTAVYYCNARRTTIYWGQGTQVTVSS
As usually defined, the EC50 is the concentration needed to bring the measured effect to its halfway point. B2 came in with an EC50 in test [2] of 690 pM. Besides, the binding result in test [3] was “no binding”.

B3: R3-5F8 (antibody, V domains shown)
VH: EVQLVESGGGLVQPGGSLRLSCVASGFDFSDTHMGWYRQAPGKERELVAIITSGGSTDYVDSVKGRFTISRDNAKNTVYLQMNSLKFEDTAVYYCNARRTTIYWGQGTQVTVSS
As to B3, in test [4], binding was put at a Kd of 54 pM. Also, the EC50 in test [5] was 530 pM; in test [6], 503 pM.

B4: R2-5C12 (antibody, V domains shown)
VH: QVQLVESGGGLVQAGGSLRLSCAASGFSASDVVMAWYRQAPGKQREFVANIAARGSTDYANSVKGRFTISRDNAKNTVYLQMNSLKSDDTAVYYCNALVWNGSSYNNWGQGTQVTVSS
On to B4, for which, in test [4], the Kd was determined as 5010 pM. Moreover, the EC50 in test [5] was 240 pM; in test [7], 220 pM; in test [6], 78 pM.

B5: R2-1F4 (antibody, V domains shown)
VH: QVQLVESGGGLVQAGGSLRLSCAASGFSASDVVMAWYRQAPGKQREFVANIAASSTTRYADSVKGRFTISRDDAKNTVSLQMNSLKSEDTAVYYCNALVWNGSSYNNWGQGTQVTVSS
B5 registered a Kd in test [4] of 2040 pM. In addition, the EC50 in test [5] stood at 220 pM; in test [6], 59 pM.

B6: 1C8 (antibody, V domains shown)
VH: QVQLVESGGGVVQPGRSLRLSCAASGRSFSRYAMAWVRQAPGKERESVAVIGSGGGRTYYADSVKGRFTISRDNSKNTLYLQMNSLRAEDTAVYYCAARIYRVVGSGTYPAGYDYWGQGTLVTVSS
Take B6: binding in test [1] was characterised by a dissociation constant (Kd) of 2610 pM.

B7: 4B11 (antibody, V domains shown)
VH: QVQLVESGGGVVQPGRSLRLSCAASGLSFSQYEMHWVRQAPGKEREFVAAISSSGISTYYADSVKGRFTISRDNSKNTLYLQMNSLRAEDTAVYYCAAELVDYHRWGYDYWGQGTLVTVSS
In test [1], B7 registered a Kd of 2820 pM.

B8: Avastin (antibody, V domains shown)
VH: EVQLVESGGGLVQPGGSLRLSCAASGYTFTNYGMNWVRQAPGKGLEWVGWINTYTGEPTYAADFKRRFTFSLDTSKSTAYLQMNSLRAEDTAVYYCAKYPHYYGSSHWYFDVWGQGTLVTVSS
VL: DIQMTQSPSSLSASVGDRVTITCSASQDISNYLNWYQQKPGKAPKVLIYFTSSLHSGVPSRFSGSGSGTDFTLTISSLQPEDFATYYCQQYSTVPWTFGQGTKVEIK
For B8, the binding result in test [8] is “no binding”.

B9: R3-3H1 (antibody, V domains shown)
VH: QLQLVESGGGVVQPGGSLRLSCAASGIDFSDTHMGWYRQAPGKQRELVAIITSGGSTDYVDSVKGRFTISRDNAKNTVYLQMNSLKFEDTAVYYCNARRSTIYWGQGTQVTVSS
B9 had a Kd in test [4] of 1200 pM. The molecule further had an EC50 in test [5] of 815 pM.

B10: 1G1 (antibody, V domains shown)
VH: QVQLVESGGGVVQPGRSLRLSCAASGLSFSYGTMAWVRQAPGKELELVAALSAGGTITYYADSVKGRFTISRDNSKNTLYLQMNSLRAEDTAVYYCAALGGYSGGSKYPYYDYWGQGTLVTVSS
With B10, the dissociation constant (Kd) in test [1] was found to be 14400 pM.
